According to patent US20240084023A1 (NGM BIOPHARMACEUTICALS, published 2024):

Experiments:
Experiment in all cases: flow cytometry on transfected 293XP cells
[1] = biological target: T1, GCGR extracellular domain alanine mutant Q113A (human, UniProt P47871 26-136, limits assumed)
T1 construct: expressed in 293XP cells
T1 chain: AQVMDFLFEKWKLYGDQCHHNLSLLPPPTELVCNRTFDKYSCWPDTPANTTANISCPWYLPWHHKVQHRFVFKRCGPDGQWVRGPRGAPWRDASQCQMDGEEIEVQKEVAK
Description: (§1) To assist in gathering information on the GCGR epitope that the 6B5 binning group bound to, “alanine scanning mutagenesis” was undertaken. These alanine scanning mutagenesis platform is a technique used for mapping both linear and conformational antigen epitopes by evaluating the effects of point mutations across a target protein. Single residues in a target protein are replaced by alanine one at a time to construct a mutant library. Each variant is assayed for its ability to bind to an antibody of interest. […] Amino acids across the extracellular domain of GCGR were mutated to alanine and the anti-GCGR antibody Hz6B5 was tested for binding to the alanine mutants.
(§2) The wild-type GCGR extracellular domain and the alanine mutants were each transfected into 293XP cells and incubated for 24 hours. Antibody Hz6B5 was incubated with the transfected cells for 30 minutes at 4° C. After washing with PBS/1% BSA/0.1% azide, the cells were incubated with a labeled anti-mouse Fc antibody (Jackson Immunoresearch) for 30 minutes at 4° C. After washing with PBS/1% BSA/0.1% azide, the cells were analyzed using a flow cytometer BD (FACSCalibur instrument) and cytometric analytical software (FlowJo). A serum sample from a mouse immunized with human GCGR was used as positive control to confirm expression of the alanine mutants.

[2] = biological target: T2, GCGR extracellular domain alanine mutant Y39A (human, UniProt P47871 26-136, limits assumed)
T2 construct: expressed in 293XP cells
T2 chain: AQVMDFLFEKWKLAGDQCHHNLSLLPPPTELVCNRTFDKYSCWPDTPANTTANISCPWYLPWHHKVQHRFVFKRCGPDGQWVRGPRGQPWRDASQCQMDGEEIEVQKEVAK
Description: as §1, §2

[3] = biological target: T3, GCGR extracellular domain alanine mutant W106A (human, UniProt P47871 26-136, limits assumed)
T3 construct: expressed in 293XP cells
T3 chain: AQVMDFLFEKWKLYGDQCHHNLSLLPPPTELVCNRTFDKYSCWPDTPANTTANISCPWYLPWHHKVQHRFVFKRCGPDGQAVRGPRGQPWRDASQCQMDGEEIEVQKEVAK
Description: as §1, §2

[4] = biological target: T4, GCGR extracellular domain alanine mutant K98A (human, UniProt P47871 26-136, limits assumed)
T4 construct: expressed in 293XP cells
T4 chain: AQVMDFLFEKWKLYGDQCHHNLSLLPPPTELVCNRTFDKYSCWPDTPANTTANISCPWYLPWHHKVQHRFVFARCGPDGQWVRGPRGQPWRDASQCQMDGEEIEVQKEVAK
Description: as §1, §2

[5] = biological target: T5, GCGR extracellular domain alanine mutant L85A (human, UniProt P47871 26-136, limits assumed)
T5 construct: expressed in 293XP cells
T5 chain: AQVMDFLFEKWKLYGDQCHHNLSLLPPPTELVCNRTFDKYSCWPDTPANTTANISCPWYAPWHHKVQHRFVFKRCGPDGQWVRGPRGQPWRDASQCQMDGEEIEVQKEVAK
Description: as §1, §2

[6] = biological target: T6, GCGR extracellular domain alanine mutant K90A (human, UniProt P47871 26-136, limits assumed)
T6 construct: expressed in 293XP cells
T6 chain: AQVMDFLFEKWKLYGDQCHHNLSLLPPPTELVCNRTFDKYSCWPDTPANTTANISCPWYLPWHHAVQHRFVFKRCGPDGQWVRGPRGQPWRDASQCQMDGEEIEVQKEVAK
Description: as §1, §2

[7] = biological target: T7, GCGR extracellular domain alanine mutant R111A (human, UniProt P47871 26-136, limits assumed)
T7 construct: expressed in 293XP cells
T7 chain: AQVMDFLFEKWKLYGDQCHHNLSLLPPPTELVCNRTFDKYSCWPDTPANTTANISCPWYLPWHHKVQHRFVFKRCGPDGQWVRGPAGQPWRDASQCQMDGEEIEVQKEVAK
Description: as §1, §2

[8] = biological target: T8, GCGR extracellular domain alanine mutant L32A (human, UniProt P47871 26-136, limits assumed)
T8 construct: expressed in 293XP cells
T8 chain: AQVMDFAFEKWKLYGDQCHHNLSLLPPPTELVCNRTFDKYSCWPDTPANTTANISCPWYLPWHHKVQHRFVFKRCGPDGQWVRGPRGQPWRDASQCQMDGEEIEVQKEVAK
Description: as §1, §2

[9] = biological target: T9, GCGR extracellular domain alanine mutant R94A (human, UniProt P47871 26-136, limits assumed)
T9 construct: expressed in 293XP cells
T9 chain: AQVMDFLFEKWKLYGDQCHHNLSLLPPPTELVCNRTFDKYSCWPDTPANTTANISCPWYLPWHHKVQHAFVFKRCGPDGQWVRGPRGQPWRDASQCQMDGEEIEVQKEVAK
Description: as §1, §2

[10] = biological target: T10, GCGR extracellular domain alanine mutant K64A (human, UniProt P47871 26-136, limits assumed)
T10 construct: expressed in 293XP cells
T10 chain: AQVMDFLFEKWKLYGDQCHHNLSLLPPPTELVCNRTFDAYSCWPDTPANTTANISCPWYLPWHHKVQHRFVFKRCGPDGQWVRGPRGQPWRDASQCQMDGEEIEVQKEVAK
Description: as §1, §2

[11] = biological target: T11, GCGR extracellular domain alanine mutant T75A (human, UniProt P47871 26-136, limits assumed)
T11 construct: expressed in 293XP cells
T11 chain: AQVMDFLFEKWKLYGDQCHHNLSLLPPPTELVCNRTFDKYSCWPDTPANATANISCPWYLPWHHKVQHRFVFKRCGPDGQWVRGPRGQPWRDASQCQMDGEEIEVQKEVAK
Description: as §1, §2

[12] = biological target: T12, GCGR extracellular domain alanine mutant R108A (human, UniProt P47871 26-136, limits assumed)
T12 construct: expressed in 293XP cells
T12 chain: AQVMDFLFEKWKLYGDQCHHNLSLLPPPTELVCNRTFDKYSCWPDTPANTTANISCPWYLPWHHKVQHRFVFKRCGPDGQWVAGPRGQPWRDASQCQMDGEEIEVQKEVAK
Description: as §1, §2

[13] = biological target: T13, GCGR extracellular domain alanine mutant W87A (human, UniProt P47871 26-136, limits assumed)
T13 construct: expressed in 293XP cells
T13 chain: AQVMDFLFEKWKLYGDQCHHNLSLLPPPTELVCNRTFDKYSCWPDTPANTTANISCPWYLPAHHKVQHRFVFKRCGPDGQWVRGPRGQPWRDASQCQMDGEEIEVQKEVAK
Description: as §1, §2

% positive cells [1]: 83.4%
% positive cells [2]: 65.8%
% positive cells [3]: 60.8%
% positive cells [4]: 82.5%
% positive cells [5]: 11.7%
% positive cells [6]: 83%
% positive cells [7]: 84.5%
% positive cells [8]: 76.9%
% positive cells [9]: 0%
% positive cells [10]: 87.6%
% positive cells [11]: 84.9%
% positive cells [12]: 87%
% positive cells [13]: 74.7%
B1: anti-GCGR antibody Hz6B5 (antibody, V domains shown)
VH: QVQLVQSGAEVKKPGSSVKVSCKASGFTFTNHWLGWVRQAPGQGLEWIGDIYPGGYYINYNEKFKGRVTITADESTSTAYMELSSLRSEDTAVYYCARHTNYGSDYWGQGTTVTVSS
VL: DVVMTQSPLSLPVTLGQPASISCRSSQSIVDSYGNTFLEWYQQRPGQSPRLLIYKVSNRLSGVPDRFSGSGSGTDFTLKISRVEAEDVGVYYCFQGSHVPWTFGQGTKLEIK
notes: Humanized 6B5
